# What was measured:
# [1] = biological target: LC3B-R/Q (human, UniProt Q9GZQ8 1-120, R68Q;R69Q;R70Q); test: EMSA; 1 mM Mg2+, 2 uM probe; EMSA: 40 mM Tris pH 8.0, 30 mM KCl, 1 mM MgCl2, 0.01% NP-40, 1 mM DTT, 30 C 1 h; FP: same buffer without NP-40, 100 nM RNA final (200 nM stock diluted 1:2), pro
# [2] = biological target: LC3B-WT (mature, cleaved by ATG4B) (human, UniProt Q9GZQ8 1-120); test: as above
binder,measurement,setting,value
AAUAAAAAUAAAAAUAAA (ssRNA) [Cy5-AAUAAAx3],binding result,[1],no binding
same,binding result,[2],binds
